This note sets out measurements from PMC5500548, “Facile Control over the Supramolecular Ordering of Self-assembled Peptide Scaffolds by Simultaneous Assembly with a Polysacharride” (Scientific Reports, 2017).

No end group written: not given here. *: point of attachment. Fmoc = O=C(OCC1c2ccccc2-c2ccccc21)*

This data set concerns the molecule itself. As to the kind of experiment: transmission electron microscopy + atomic force microscopy; hydrogel of 10 mg/mL Fmoc-FRGDF formed by pH switch to pH 7.4, PBS; dried, negatively stained (TEM) or on HOPG (AFM).

B1: Fmoc-FRGDF (peptide)
peptide: Fmoc-FRGDF
notes: the Fmoc group is kept on the N-terminus; Low molecular weight gelator; also called Fluorenylmethoxycarbonyl (Fmoc) pentapeptide; SAP; source: synthetic peptide (solid phase Fmoc peptide synthesis)
Consider B1, for which the binding result is listed as “binds”.
